Each block holds one substance with its values, some of them ahead of it.
How the values were obtained:
[1] = target: YFP-fused myosin Va peptide containing five tandem IQ motifs (IQ2-6) (mouse) (UniProt Q99104); test: FRET or BRET; FRET 2-hybrid in live HEK293 cells co-expressing a CFP-tagged and a YFP-tagged partner; 3^3-FRET (EA) and E-FRET (ED) efficiencies from single cells, room temperature; stoichiometry from the ratio EA,max/ED,max
[2] = target: EYFP-tagged myosin Va peptide containing two IQ domains (IQ5-6) (mouse) (UniProt Q99104); test: as above
EYFP-tagged myosin Va peptide containing two IQ domains (IQ5-6) (mouse), sequence (Q99104 862-920): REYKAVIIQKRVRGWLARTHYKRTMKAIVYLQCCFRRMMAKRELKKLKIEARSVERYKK

[3] = target: EYFP-fused myosin Va peptide containing four tandem IQ domains (IQ3-6) (mouse) (UniProt Q99104); test: as above
EYFP-fused myosin Va peptide containing four tandem IQ domains (IQ3-6) (mouse), sequence (Q99104 814-920): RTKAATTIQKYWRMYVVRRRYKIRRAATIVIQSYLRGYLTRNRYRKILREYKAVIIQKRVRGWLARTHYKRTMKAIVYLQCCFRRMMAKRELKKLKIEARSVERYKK

[4] = target: EYFP-tagged myosin Va peptide containing three tandem IQ domains (IQ4-6) (mouse) (UniProt Q99104); test: as above
EYFP-tagged myosin Va peptide containing three tandem IQ domains (IQ4-6) (mouse), sequence (Q99104 837-920): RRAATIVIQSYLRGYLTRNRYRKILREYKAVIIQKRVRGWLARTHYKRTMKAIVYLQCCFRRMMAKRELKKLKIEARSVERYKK

[5] = target: ECFP fused myosin Va peptide containing five tandem IQ domains (IQ2-6) (mouse) (UniProt Q99104); test: as above
ECFP fused myosin Va peptide containing five tandem IQ domains (IQ2-6) (mouse), sequence (Q99104 789-920): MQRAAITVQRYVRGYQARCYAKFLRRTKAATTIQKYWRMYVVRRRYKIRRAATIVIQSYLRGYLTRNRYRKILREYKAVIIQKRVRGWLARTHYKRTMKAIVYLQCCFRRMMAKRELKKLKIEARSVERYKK

[6] = target: ECFP fused myosin Va peptide containing three tandem IQ domains (IQ4-6) (mouse) (UniProt Q99104); test: as above
ECFP fused myosin Va peptide containing three tandem IQ domains (IQ4-6) (mouse), sequence (Q99104 837-920): as the sequence (Q99104 837-920) above

[7] = target: ECFP tagged myosin Va peptide containing a single IQ domain (IQ6) (mouse) (UniProt Q99104); test: as above
ECFP tagged myosin Va peptide containing a single IQ domain (IQ6) (mouse), sequence (Q99104 885-920): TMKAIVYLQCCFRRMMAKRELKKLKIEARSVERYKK

[8] = target: CaV1.2 holochannel tagged with EYFP on its carboxy-terminus, co-expressed with β2a and α2δ subunits (UniProt P15381); test: FRET or BRET; FRET 2-hybrid (3^3-FRET and E-FRET) in single live HEK293 cells, room temperature, elevated cytosolic Ca2+: Tyrode's bath with 10 mM Ca2+ and 4 μM ionomycin; relative (effective) dissociation constants Kd,EFF; stoichiometry ratio ν = EA,max/ED,max
CaV1.2 holochannel tagged with EYFP on its carboxy-terminus, co-expressed with β2a and α2δ subunits, sequence (P15381 whole entry, stated change not applied, chain 1 of 3, other chains not shown, the tested form may be a part): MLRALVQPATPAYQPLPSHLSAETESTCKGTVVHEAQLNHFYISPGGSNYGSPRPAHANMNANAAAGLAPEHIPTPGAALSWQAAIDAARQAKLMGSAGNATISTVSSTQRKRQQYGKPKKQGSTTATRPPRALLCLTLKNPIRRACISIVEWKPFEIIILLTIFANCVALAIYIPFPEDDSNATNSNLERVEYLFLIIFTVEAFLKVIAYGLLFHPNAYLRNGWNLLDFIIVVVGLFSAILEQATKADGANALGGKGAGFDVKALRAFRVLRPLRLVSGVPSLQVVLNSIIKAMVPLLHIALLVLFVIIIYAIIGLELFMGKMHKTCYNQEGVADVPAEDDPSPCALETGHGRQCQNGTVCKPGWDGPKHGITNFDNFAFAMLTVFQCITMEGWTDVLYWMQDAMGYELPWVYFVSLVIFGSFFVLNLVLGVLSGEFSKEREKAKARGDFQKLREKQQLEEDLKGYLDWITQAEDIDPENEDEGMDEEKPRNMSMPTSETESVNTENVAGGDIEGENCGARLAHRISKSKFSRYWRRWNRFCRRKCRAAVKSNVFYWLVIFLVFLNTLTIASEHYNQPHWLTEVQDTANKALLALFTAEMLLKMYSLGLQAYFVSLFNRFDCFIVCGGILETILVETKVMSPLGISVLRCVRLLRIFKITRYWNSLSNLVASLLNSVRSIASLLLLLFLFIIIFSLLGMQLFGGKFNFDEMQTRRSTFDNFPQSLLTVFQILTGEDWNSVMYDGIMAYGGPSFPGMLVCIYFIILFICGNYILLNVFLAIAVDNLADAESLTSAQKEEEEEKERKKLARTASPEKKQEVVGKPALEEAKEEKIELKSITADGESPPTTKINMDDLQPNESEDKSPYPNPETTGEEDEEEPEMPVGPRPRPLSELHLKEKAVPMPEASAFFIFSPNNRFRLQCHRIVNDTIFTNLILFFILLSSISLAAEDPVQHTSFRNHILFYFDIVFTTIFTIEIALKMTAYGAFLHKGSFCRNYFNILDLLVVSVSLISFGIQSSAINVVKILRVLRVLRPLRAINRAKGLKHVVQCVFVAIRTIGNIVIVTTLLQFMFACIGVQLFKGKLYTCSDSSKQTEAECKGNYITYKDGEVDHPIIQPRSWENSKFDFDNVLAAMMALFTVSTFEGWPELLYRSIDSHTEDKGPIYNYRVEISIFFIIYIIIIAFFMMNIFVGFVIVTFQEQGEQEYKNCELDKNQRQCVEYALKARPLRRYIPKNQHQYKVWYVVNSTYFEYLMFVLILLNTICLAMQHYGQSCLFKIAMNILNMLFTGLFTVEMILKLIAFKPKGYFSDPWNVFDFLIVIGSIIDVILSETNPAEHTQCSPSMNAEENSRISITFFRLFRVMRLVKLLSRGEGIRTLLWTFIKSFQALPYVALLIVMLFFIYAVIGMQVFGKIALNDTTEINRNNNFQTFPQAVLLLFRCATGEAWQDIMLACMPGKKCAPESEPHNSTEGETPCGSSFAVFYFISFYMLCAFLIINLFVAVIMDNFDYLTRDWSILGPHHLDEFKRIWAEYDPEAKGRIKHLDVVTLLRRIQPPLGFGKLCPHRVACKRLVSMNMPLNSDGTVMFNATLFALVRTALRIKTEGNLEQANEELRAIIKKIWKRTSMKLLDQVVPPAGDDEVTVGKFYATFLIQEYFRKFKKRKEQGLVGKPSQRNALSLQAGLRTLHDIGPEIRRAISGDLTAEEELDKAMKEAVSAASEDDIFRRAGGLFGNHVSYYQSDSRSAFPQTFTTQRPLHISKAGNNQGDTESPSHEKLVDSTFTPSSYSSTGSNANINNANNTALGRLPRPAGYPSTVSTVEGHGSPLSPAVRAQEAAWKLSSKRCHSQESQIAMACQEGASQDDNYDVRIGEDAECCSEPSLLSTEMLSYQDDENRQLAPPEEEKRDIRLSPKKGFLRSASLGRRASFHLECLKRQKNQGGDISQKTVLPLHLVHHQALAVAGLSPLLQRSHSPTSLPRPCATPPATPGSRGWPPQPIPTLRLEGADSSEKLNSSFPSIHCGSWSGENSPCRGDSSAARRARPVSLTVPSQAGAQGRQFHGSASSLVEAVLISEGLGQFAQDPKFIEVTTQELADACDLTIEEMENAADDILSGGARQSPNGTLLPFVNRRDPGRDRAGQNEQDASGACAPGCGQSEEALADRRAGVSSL
CaV1.2 holochannel tagged with EYFP on its carboxy-terminus, co-expressed with β2a and α2δ subunits, sequence (P54290 25-1091, stated change not applied, chain 3 of 3, other chains not shown, further chain): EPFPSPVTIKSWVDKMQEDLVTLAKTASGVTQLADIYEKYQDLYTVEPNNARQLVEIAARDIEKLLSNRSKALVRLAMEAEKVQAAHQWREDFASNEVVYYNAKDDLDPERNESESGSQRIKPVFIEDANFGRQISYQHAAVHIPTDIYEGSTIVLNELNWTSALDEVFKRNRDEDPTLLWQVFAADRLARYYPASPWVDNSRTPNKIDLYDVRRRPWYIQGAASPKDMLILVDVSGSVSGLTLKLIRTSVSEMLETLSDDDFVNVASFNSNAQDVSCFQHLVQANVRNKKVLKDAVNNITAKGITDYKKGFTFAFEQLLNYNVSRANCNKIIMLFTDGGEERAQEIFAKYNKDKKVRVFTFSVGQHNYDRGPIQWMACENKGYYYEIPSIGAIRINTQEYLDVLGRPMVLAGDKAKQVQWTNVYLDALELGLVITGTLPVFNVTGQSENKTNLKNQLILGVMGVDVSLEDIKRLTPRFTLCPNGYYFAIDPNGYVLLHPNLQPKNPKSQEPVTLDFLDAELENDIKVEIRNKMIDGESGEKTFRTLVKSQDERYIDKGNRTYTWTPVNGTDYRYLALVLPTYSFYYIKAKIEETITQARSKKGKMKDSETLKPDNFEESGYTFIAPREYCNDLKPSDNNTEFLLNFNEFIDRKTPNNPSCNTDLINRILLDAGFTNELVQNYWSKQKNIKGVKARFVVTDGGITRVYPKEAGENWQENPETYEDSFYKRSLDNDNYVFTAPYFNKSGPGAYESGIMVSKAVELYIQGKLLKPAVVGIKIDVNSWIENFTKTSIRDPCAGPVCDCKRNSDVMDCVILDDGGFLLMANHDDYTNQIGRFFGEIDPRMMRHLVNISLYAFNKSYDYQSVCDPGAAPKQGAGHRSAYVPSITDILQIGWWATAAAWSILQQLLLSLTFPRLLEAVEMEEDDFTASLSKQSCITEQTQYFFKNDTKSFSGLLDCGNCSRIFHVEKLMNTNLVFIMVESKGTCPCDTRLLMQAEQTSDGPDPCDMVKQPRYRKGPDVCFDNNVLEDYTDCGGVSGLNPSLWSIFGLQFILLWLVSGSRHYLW

[9] = target: EYFP-tagged full length myosin Va neck domain peptide containing six IQ domains (IQ1-6) (mouse) (UniProt Q99104); test: FRET or BRET; FRET 2-hybrid (3^3-FRET and E-FRET) in single live HEK293 cells, room temperature, basal (resting) Ca2+: Tyrode's bath with 2 mM Ca2+; relative (effective) dissociation constants Kd,EFF; stoichiometry ratio ν = EA,max/ED,max
EYFP-tagged full length myosin Va neck domain peptide containing six IQ domains (IQ1-6) (mouse), sequence (Q99104 766-920): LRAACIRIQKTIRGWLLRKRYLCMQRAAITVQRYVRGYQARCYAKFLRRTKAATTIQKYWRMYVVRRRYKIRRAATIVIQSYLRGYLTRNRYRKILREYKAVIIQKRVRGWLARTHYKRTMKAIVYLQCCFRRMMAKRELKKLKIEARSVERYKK

[10] = target: CaV1.2 holochannel tagged with EYFP on its carboxy-terminus, co-expressed with β2a and α2δ subunits (UniProt P15381); test: as above
[11] = target: EYFP tagged myosin Va peptide containing a single IQ domain (IQ6) (mouse) (UniProt Q99104); test: as above
EYFP tagged myosin Va peptide containing a single IQ domain (IQ6) (mouse), sequence (Q99104 885-920): as the sequence (Q99104 885-920) above

[12] = target: EYFP tagged myosin Va three tandem IQ domain peptide (IQ4-6) (mouse) (UniProt Q99104); test: as above
EYFP tagged myosin Va three tandem IQ domain peptide (IQ4-6) (mouse), sequence (Q99104 837-920): as the sequence (Q99104 837-920) above

[13] = target: EYFP tagged myosin Va two tandem IQ domain peptide (IQ5-6) (mouse) (UniProt Q99104); test: as above
EYFP tagged myosin Va two tandem IQ domain peptide (IQ5-6) (mouse), sequence (Q99104 862-920): as the sequence (Q99104 862-920) above

[14] = target: EYFP tagged myosin Va five tandem IQ domain truncation (IQ2-6) (mouse) (UniProt Q99104); test: as above
EYFP tagged myosin Va five tandem IQ domain truncation (IQ2-6) (mouse), sequence (Q99104 789-920): as the sequence (Q99104 789-920) above

[15] = target: NaV1.4 with EYFP fused to its carboxy-terminus (rat) (UniProt P15390); test: as above
[16] = target: EYFP tagged myosin Va four tandem IQ domain peptide (IQ3-6) (mouse) (UniProt Q99104); test: as above
EYFP tagged myosin Va four tandem IQ domain peptide (IQ3-6) (mouse), sequence (Q99104 814-920): as the sequence (Q99104 814-920) above

YFP-fused myosin Va peptide containing five tandem IQ motifs (IQ2-6) (mouse), sequence (Q99104 789-920): as the sequence (Q99104 789-920) above

- stoichiometry N [1]: 5
- stoichiometry N [2]: 2
- stoichiometry N [3]: 4
- stoichiometry N [4]: 3
Substance: ECFP-tagged calmodulin (from UniProt P0DP23 1-149) (natural protein)

- stoichiometry N [5]: 5
- stoichiometry N [6]: 3
- stoichiometry N [7]: 1
Substance: EYFP-tagged calmodulin (from UniProt P0DP23 1-149) (natural protein)

- stoichiometry N (CaM per peptide (donors per acceptor)) [9]: 5.91
- stoichiometry N (CaM per peptide (donors per acceptor)) [11]: 0.97
- stoichiometry N (CaM per peptide (donors per acceptor)) [12]: 3
- stoichiometry N (CaM per peptide (donors per acceptor)) [13]: 2
- stoichiometry N (CaM per peptide (donors per acceptor)) [14]: 5
- stoichiometry N (CaM per channel (donors per acceptor)) [15]: 1.14
- stoichiometry N (CaM per peptide (donors per acceptor)) [16]: 4
Substance: ECFP-tagged calmodulin (CaM) (from UniProt P0DP23 1-149) (natural protein)
- stoichiometry N (CaM per channel (donors per acceptor)) [8]: 1.94
- Kd [10]: 0.115 µM
- stoichiometry N (CaM per channel (donors per acceptor)) [10]: 1.1

Source: PMC5150656
